According to patent US12099068B2, “Biomarkers for graft-versus-host disease” (Incyte Corporation, priority 2018, dated 2024):

B1: CES2 (protein, UniProt O00748 27-559, looked up)
Cocaine esterase: QDSASPIRTTHTGQVLGSLVHVKGANAGVQTFLGIPFAKPPLGPLRFAPPEPPESWSGVRDGTTHPAMCLQDLTAVESEFLSQFNMTFPSDSMSEDCLYLSIYTPAHSHEGSNLPVMVWIHGGALVFGMASLYDGSMLAALENVVVVIIQYRLGVLGFFSTGDKHATGNWGYLDQVAALRWVQQNIAHFGGNPDRVTIFGESAGGTSVSSLVVSPISQGLFHGAIMESGVALLPGLIASSADVISTVVANLSACDQVDSEALVGCLRGKSKEEILAINKPFKMIPGVVDGVFLPRHPQELLASADFQPVPSIVGVNNNEFGWLIPKVMRIYDTQKEMDREASQAALQKMLTLLMLPPTFGDLLREEYIGDNGDPQTLQAQFQEMMADSMFVIPALQVAHFQCSRAPVYFYEFQHQPSWLKNIRPPHMKADHGDELPFVFRSFFGGNYIKFTEEEEQLSRKMMKYWANFARNGNPNGEGLPHWPLFDQEEQYLQLNLQPAVGRALKAHRLQFWKKALPQKIQELEEPEERHTEL
B2: NFKBIE (protein, UniProt O00221 1-500, looked up)
NF-kappa-B inhibitor epsilon: MNQRRSESRPGNHRLQAYAEPGKGDSGGAGPLSGSARRGRGGGGAIRVRRPCWSGGAGRGGGPAWAVRLPTVTAGWTWPALRTLSSLRAGPSEPHSPGRRPPRAGRPLCQADPQPGKAARRSLEPDPAQTGPRPARAAGMSEARKGPDEAEESQYDSGIESLRSLRSLPESTSAPASGPSDGSPQPCTHPPGPVKEPQEKEDADGERADSTYGSSSLTYTLSLLGGPEAEDPAPRLPLPHVGALSPQQLEALTYISEDGDTLVHLAVIHEAPAVLLCCLALLPQEVLDIQNNLYQTALHLAVHLDQPGAVRALVLKGASRALQDRHGDTALHVACQRQHLACARCLLEGRPEPGRGTSHSLDLQLQNWQGLACLHIATLQKNQPLMELLLRNGADIDVQEGTSGKTALHLAVETQERGLVQFLLQAGAQVDARMLNGCTPLHLAAGRGLMGISSTLCKAGADSLLRNVEDETPQDLTEESLVLLPFDDLKISGKLLLCTD
B3: SIRPB1 (protein, UniProt O00241 30-398, looked up)
Signal-regulatory protein …: EDELQVIQPEKSVSVAAGESATLRCAMTSLIPVGPIMWFRGAGAGRELIYNQKEGHFPRVTTVSELTKRNNLDFSISISNITPADAGTYYCVKFRKGSPDDVEFKSGAGTELSVRAKPSAPVVSGPAVRATPEHTVSFTCESHGFSPRDITLKWFKNGNELSDFQTNVDPAGDSVSYSIHSTARVVLTRGDVHSQVICEIAHITLQGDPLRGTANLSEAIRVPPTLEVTQQPMRAENQANVTCQVSNFYPRGLQLTWLENGNVSRTETASTLIENKDGTYNWMSWLLVNTCAHRDDVVLTCQVEHDGQQAVSKSYALEISAHQKEHGSDITHEAALAPTAPLLVALLLGPKLLLVVGVSAIYICWKQKA
B4: CNDP1 (protein, UniProt Q96KN2 27-507, looked up)
Beta-Ala-His dipeptidase: SPSPPPALLEKVFQYIDLHQDEFVQTLKEWVAIESDSVQPVPRFRQELFRMMAVAADTLQRLGARVASVDMGPQQLPDGQSLPIPPVILAELGSDPTKGTVCFYGHLDVQPADRGDGWLTDPYVLTEVDGKLYGRGATDNKGPVLAWINAVSAFRALEQDLPVNIKFIIEGMEEAGSVALEELVEKEKDRFFSGVDYIVISDNLWISQRKPAITYGTRGNSYFMVEVKCRDQDFHSGTFGGILHEPMADLVALLGSLVDSSGHILVPGIYDEVVPLTEEEINTYKAIHLDLEEYRNSSRVEKFLFDTKEEILMHLWRYPSLSIHGIEGAFDEPGTKTVIPGRVIGKFSIRLVPHMNVSAVEKQVTRHLEDVFSKRNSSNKMVVSMTLGLHPWIANIDDTQYLAAKRAIRTVFGTEPDMIRDGSTIPIAKMFQEIVHKSVVLIPLGAVDDGEHSQNEKINRWNYIEGTKLFAAFFLEMAQLH
B5: LAT (protein, UniProt O43561 1-262, looked up)
Linker for activation of …: MEEAILVPCVLGLLLLPILAMLMALCVHCHRLPGSYDSTSSDSLYPRGIQFKRPHTVAPWPPAYPPVTSYPPLSQPDLLPIPRSPQPLGGSHRTPSSRRDSDGANSVASYENEGASGIRGAQAGWGVWGPSWTRLTPVSLPPEPACEDADEDEDDYHNPGYLVVLPDSTPATSTAAPSAPALSTPGIRDSAFSMESIDDYVNVPESGESAEASLDGSREYVNVSQELHPGAAKTEPAALSSQEAEEVEEEGAPDYENLQELN
B6: SIRT2 (protein, UniProt Q8IXJ6 2-389, looked up)
NAD-dependent protein …: AEPDPSHPLETQAGKVQEAQDSDSDSEGGAAGGEADMDFLRNLFSQTLSLGSQKERLLDELTLEGVARYMQSERCRRVICLVGAGISTSAGIPDFRSPSTGLYDNLEKYHLPYPEAIFEISYFKKHPEPFFALAKELYPGQFKPTICHYFMRLLKDKGLLLRCYTQNIDTLERIAGLEQEDLVEAHGTFYTSHCVSASCRHEYPLSWMKEKIFSEVTPKCEDCQSLVKPDIVFFGESLPARFFSCMQSDFLKVDLLLVMGTSLQVQPFASLISKAPLSTPRLLINKEKAGQSDPFLGMIMGLGGGMDFDSKKAYRDVAWLGECDQGCLALAELLGWKKELEDLVRREHASIDAQSGAGVPNPSTSASPKKSPPPAKDEARTTEREKPQ
B7: hOSCAR (protein, UniProt Q8IYS5 19-282, looked up)
Osteoclast-associated …: DITPSVPPASYHPKPWLGAQPATVVTPGVNVTLRCRAPQPAWRFGLFKPGEIAPLLFRDVSSELAEFFLEEVTPAQGGIYRCCYRRPDWGPGVWSQPSDVLELLVTEELPRPSLVALPGPVVGPGANVSLRCAGRLRNMSFVLYREGVAAPLQYRHSAQPWADFTLLGARAPGTYSCYYHTPSAPYVLSQRSEVLVISWEGEGPEARPASSAPGMQAPGPPPSDPGAQAPSLSSFRPRGLVLQPLLPQTQDSWDPAPPPSDPGV
B8: ST3GAL1 (protein, UniProt Q11201 1-340, looked up)
CMP-N-acetylneuraminate-beta-g …: MVTLRKRTLKVLTFLVLFIFLTSFFLNYSHTMVATTWFPKQMVLELSENLKRLIKHRPCTCTHCIGQRKLSAWFDERFNQTMQPLLTAQNALLEDDTYRWWLRLQREKKPNNLNDTIKELFRVVPGNVDPMLEKRSVGCRRCAVVGNSGNLRESSYGPEIDSHDFVLRMNKAPTAGFEADVGTKTTHHLVYPESFRELGDNVSMILVPFKTIDLEWVVSAITTGTISHTYIPVPAKIRVKQDKILIYHPAFIKYVFDNWLQGHGRYPSTGILSVIFSMHVCDEVDLYGFGADSKGNWHHYWENNPSAGAFRKTGVHDADFESNVTATLASINKIRIFKGR
B9: CX3CL1 (protein, UniProt P78423 25-397, looked up)
Fractalkine: QHHGVTKCNITCSKMTSKIPVALLIHYQQNQASCGKRAIILETRQHRLFCADPKEQWVKDAMQHLDRQAAALTRNGGTFEKQIGEVKPRTTPAAGGMDESVVLEPEATGESSSLEPTPSSQEAQRALGTSPELPTGVTGSSGTRLPPTPKAQDGGPVGTELFRVPPVSTAATWQSSAPHQPGPSLWAEAKTSEAPSTQDPSTQASTASSPAPEENAPSEGQRVWGQGQSPRPENSLEREEMGPVPAHTDAFQDWGPGSMAHVSVVPVSSEGTPSREPVASGSWTPKAEEPIHATMDPQRLGVLITPVPDAQAATRRQAVGLLAFLGLLFCLGVAMFTYQSLQGCPRKMAGEMAEGLRYIPRSCGSNSYVLVPV
B10: CST5 (protein, UniProt P28325 21-142, looked up)
Cystatin-D: GSASAQSRTLAGGIHATDLNDKSVQCALDFAISEYNKVINKDEYYSRPLQVMAAYQQIVGGVNYYFNVKFGRTTCTKSQPNLDNCPFNDQPKLKEEEFCSFQINEVPWEDKISILNYKCRKV
B11: SERPINA5 (protein, UniProt P05154 26-406, looked up)
Plasma serine protease …: EMKKRVEDLHVGATVAPSSRRDFTFDLYRALASAAPSQSIFFSPVSISMSLAMLSLGAGSSTKMQILEGLGLNLQKSSEKELHRGFQQLLQELNQPRDGFQLSLGNALFTDLVVDLQDTFVSAMKTLYLADTFPTNFRDSAGAMKQINDYVAKQTKGKIVDLLKNLDSNAVVIMVNYIFFKAKWETSFNHKGTQEQDFYVTSETVVRVPMMSREDQYHYLLDRNLSCRVVGVPYQGNATALFILPSEGKMQQVENGLSEKTLRKWLKMFKKRQLELYLPKFSIEGSYQLEKVLPSLGISNVFTSHADLSGISNHSNIQVSEMVHKAVVEVDESGTRAAAATGTIFTFRSARLNSQRLVFNRPFLMFIVDNNILFLGKVNRP
B12: PTPRJ (protein, UniProt Q12913 36-1337, looked up)
Receptor-type …: AGGTPSPIPDPSVATVATGENGITQISSTAESFHKQNGTGTPQVETNTSEDGESSGANDSLRTPEQGSNGTDGASQKTPSSTGPSPVFDIKAVSISPTNVILTWKSNDTAASEYKYVVKHKMENEKTITVVHQPWCNITGLRPATSYVFSITPGIGNETWGDPRVIKVITEPIPVSDLRVALTGVRKAALSWSNGNGTASCRVLLESIGSHEELTQDSRLQVNISGLKPGVQYNINPYLLQSNKTKGDPLGTEGGLDASNTERSRAGSPTAPVHDESLVGPVDPSSGQQSRDTEVLLVGLEPGTRYNATVYSQAANGTEGQPQAIEFRTNAIQVFDVTAVNISATSLTLIWKVSDNESSSNYTYKIHVAGETDSSNLNVSEPRAVIPGLRSSTFYNITVCPVLGDIEGTPGFLQVHTPPVPVSDFRVTVVSTTEIGLAWSSHDAESFQMHITQEGAGNSRVEITTNQSIIIGGLFPGTKYCFEIVPKGPNGTEGASRTVCNRTVPSAVFDIHVVYVTTTEMWLDWKSPDGASEYVYHLVIESKHGSNHTSTYDKAITLQGLIPGTLYNITISPEVDHVWGDPNSTAQYTRPSNVSNIDVSTNTTAATLSWQNFDDASPTYSYCLLIEKAGNSSNATQVVTDIGITDATVTELIPGSSYTVEIFAQVGDGIKSLEPGRKSFCTDPASMASFDCEVVPKEPALVLKWTCPPGANAGFELEVSSGAWNNATHLESCSSENGTEYRTEVTYLNFSTSYNISITTVSCGKMAAPTRNTCTTGITDPPPPDGSPNITSVSHNSVKVKFSGFEASHGPIKAYAVILTTGEAGHPSADVLKYTYEDFKKGASDTYVTYLIRTEEKGRSQSLSEVLKYEIDVGNESTTLGYYNGKLEPLGSYRACVAGFTNITFHPQNKGLIDGAESYVSFSRYSDAVSLPQDPGVICGAVFGCIFGALVIVTVGGFIFWRKKRKDAKNNEVSFSQIKPKKSKLIRVENFEAYFKKQQADSNCGFAEEYEDLKLVGISQPKYAAELAENRGKNRYNNVLPYDISRVKLSVQTHSTDDYINANYMPGYHSKKDFIATQGPLPNTLKDFWRMVWEKNVYAIIMLTKCVEQGRTKCEEYWPSKQAQDYGDITVAMTSEIVLPEWTIRDFTVKNIQTSESHPLRQFHFTSWPDHGVPDTTDLLINFRYLVRDYMKQSPPESPILVHCSAGVGRTGTFIAIDRLIYQIENENTVDVYGIVYDLRMHRPLMVQTEDQYVFLNQCVLDIVRSQKDSKVDLIYQNTTAMTIYENLAPVTTFGKTNGYIA

What follows are molecules tested on plasma proteins (assay: Plasma proteins modulated between baseline and day 28 in responders (CR, VGPR, PR; n = 19), Example 6 (Table 13)). Details: plasma protein (OLINK NPX); responders (CR, VGPR, PR; n = 19); itacitinib 200 mg or 300 mg QD with corticosteroids; day 28 vs baseline.
Format: in vivo, human
Procedure, shortened: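 Longitudinal comparison, day 28 versus baseline, with steroid-naive (N=10) and steroid-refractory (N=18) patients combined. Proteins measured by OLINK proximity extension, log2 normalized protein expression. Differences tested by t tests, ANOVA, Pearson correlation, P<0.05 significant.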

Molecule	Fold Change, Increased Expression from Baseline to Day 28	Fold Change, Decreased Expression from Baseline to Day 28
B1	1.4212	
B2		−1.2885
B3		−1.3991
B4	1.3856	
B5		−2.049
B6		−1.6014
B7		−1.2603
B8	1.3415	
B9	1.5454	
B10	1.3521	
B11	1.2683	
B12		−1.7421
